Experiments:
[1] = molecular target: HA-tagged YadA-MA expressed in E. coli (Yersinia enterocolitica) (UniProt P0C2W0); assay: SDS-PAGE of the SDS-stable oligomer with monomerization by boiling in urea
[2] = molecular target: the molecule itself; assay: as above

## HA-tagged YadA-MA expressed in E. coli (from UniProt P0C2W0 335-422) (domain or fragment)
[1]
  stoichiometry N: 3

B1: HA-tagged YadA-MA-S417G, expressed in yeast (domain or fragment)
chain: FHQLDNRLDKLDTRVDKGLASSAALNSLFQPYGVGKVNFTAGVGGYRSSQALAIGSGYRVNESVALKAGVAYAGSSDVMYNAGFNIEW
[2]
  stoichiometry N: 3

Source: paper PMC3093317 (Molecular Biology of the Cell, 2011)
